This is an account of results in patent US20090143308A1.

Assay in all cases: cell-based or functional assay
The target in assay [1] is Saccharomyces cerevisiae Pdr5p (over-expressed in strain AD124567) (Saccharomyces cerevisiae) (UniProt P33302).
In assay [2] the target is S. cerevisiae plasma membrane H+-ATPase (Pma1p) (Saccharomyces cerevisiae) (UniProt P05030).
In assay [3] the target is Candida albicans Cdr1p as expressed in S. cerevisiae AD1002 (CDR1 of plasmid pKEN1002) (Candida albicans) (UniProt P43071).
Candida albicans Cdr1p as expressed in S. cerevisiae AD1002 (CDR1 of plasmid pKEN1002) (Candida albicans), sequence (P43071 whole entry): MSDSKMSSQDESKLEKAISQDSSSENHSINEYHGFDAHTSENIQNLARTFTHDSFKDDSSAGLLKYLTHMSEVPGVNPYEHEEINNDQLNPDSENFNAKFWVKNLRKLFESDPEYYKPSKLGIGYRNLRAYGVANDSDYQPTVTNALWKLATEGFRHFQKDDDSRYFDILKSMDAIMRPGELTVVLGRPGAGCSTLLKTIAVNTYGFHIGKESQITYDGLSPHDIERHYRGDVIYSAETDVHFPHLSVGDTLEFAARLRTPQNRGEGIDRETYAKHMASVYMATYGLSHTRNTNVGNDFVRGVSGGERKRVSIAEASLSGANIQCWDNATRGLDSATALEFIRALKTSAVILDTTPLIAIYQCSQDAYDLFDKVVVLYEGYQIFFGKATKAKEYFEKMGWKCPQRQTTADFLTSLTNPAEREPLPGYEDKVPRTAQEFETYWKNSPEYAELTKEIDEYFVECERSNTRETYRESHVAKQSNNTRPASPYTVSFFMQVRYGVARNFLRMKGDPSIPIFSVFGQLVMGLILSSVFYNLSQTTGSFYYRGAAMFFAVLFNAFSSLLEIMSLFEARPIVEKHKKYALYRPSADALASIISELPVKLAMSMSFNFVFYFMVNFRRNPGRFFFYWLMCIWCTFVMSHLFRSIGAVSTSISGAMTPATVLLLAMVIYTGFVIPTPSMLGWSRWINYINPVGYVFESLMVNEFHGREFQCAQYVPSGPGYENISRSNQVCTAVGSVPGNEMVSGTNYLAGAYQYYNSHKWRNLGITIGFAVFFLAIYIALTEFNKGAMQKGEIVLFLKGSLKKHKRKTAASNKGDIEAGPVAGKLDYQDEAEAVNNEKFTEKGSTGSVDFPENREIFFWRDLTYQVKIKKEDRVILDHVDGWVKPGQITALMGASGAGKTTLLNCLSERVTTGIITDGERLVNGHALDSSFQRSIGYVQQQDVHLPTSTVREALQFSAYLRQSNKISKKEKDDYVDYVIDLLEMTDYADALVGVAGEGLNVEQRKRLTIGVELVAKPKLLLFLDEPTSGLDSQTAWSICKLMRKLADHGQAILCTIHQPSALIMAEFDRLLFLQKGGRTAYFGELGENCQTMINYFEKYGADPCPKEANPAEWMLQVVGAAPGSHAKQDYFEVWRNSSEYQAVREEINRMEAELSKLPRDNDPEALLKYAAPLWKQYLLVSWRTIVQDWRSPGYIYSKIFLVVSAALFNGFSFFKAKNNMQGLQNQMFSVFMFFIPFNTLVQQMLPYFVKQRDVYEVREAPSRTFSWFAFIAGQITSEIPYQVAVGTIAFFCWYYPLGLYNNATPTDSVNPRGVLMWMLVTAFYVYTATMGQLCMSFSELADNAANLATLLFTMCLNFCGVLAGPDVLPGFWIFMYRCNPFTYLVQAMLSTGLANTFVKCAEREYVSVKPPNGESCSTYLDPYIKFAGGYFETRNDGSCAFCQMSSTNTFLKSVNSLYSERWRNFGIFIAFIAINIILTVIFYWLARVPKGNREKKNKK

S. cerevisiae plasma membrane H+-ATPase (Pma1p) (Saccharomyces cerevisiae), sequence (P05030 whole entry): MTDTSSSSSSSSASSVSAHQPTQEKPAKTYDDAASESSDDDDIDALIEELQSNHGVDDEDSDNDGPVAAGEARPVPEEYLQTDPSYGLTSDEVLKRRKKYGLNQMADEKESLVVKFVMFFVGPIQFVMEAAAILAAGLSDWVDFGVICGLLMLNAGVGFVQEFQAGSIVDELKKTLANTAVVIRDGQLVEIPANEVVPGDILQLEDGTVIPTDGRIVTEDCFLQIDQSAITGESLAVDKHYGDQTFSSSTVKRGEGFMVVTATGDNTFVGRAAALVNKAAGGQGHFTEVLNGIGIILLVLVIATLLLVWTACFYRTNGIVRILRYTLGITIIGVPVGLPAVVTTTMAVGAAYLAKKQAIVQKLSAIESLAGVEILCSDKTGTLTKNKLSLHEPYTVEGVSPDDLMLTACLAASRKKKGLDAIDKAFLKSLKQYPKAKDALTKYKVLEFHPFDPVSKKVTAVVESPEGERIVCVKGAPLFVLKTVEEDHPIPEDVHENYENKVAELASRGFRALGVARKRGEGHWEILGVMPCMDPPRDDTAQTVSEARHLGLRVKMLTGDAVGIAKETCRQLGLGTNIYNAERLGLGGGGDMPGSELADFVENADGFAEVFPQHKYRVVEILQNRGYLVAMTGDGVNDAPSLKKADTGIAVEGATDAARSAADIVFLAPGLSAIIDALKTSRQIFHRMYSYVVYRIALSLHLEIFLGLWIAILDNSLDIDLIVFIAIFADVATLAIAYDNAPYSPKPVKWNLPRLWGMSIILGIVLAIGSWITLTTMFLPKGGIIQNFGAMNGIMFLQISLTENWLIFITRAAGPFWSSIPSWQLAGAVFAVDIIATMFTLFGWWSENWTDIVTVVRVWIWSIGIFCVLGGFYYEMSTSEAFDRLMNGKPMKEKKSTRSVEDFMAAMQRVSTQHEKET
Saccharomyces cerevisiae Pdr5p (over-expressed in strain AD124567) (Saccharomyces cerevisiae), sequence (P33302 whole entry): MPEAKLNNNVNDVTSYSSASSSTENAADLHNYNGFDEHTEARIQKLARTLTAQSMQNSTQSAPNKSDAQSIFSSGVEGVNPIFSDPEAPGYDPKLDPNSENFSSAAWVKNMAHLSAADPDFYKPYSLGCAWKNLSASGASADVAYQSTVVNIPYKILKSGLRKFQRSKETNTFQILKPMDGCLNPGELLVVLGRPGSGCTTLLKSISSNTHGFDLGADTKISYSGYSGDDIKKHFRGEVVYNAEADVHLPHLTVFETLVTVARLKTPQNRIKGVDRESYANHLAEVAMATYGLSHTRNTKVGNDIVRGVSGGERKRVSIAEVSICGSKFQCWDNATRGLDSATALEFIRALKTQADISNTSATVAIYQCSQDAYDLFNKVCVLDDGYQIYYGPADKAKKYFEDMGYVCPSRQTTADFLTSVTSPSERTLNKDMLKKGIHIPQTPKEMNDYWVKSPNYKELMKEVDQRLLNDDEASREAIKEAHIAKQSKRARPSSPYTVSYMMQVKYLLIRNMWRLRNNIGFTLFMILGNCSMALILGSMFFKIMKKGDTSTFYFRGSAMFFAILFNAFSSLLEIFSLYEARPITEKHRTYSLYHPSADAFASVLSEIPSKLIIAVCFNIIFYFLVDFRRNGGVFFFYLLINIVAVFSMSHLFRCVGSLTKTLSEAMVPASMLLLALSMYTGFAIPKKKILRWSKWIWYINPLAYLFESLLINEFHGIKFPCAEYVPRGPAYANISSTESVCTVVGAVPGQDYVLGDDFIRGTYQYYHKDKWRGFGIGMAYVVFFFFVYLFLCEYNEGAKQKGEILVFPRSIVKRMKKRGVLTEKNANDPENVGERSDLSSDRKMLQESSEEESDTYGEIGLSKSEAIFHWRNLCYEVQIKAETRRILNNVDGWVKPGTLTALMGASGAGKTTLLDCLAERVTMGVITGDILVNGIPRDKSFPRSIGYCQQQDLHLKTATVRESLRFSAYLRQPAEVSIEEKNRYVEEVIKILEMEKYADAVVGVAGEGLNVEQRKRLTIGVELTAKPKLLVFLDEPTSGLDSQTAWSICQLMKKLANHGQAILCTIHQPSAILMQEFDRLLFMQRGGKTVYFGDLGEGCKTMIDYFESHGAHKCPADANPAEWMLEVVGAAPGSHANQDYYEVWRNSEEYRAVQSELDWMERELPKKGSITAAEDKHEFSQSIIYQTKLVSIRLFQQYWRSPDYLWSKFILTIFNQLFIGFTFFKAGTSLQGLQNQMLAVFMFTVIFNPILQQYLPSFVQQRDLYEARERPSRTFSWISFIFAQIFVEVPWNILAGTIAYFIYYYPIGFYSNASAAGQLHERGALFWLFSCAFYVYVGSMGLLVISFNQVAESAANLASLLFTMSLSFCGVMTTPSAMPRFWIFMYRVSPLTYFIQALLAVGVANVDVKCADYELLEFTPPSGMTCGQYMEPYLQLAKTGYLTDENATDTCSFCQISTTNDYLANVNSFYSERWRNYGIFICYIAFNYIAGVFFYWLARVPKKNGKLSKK

As for “KN20 (D-NH2-asparagine-tryptophan-tryptophan-lysine-valine-arginine-arginine-arginine-CONH2 with a single Mtr substituent) (peptide)”, in assay [1], the inhibition of oligomycin sensitive ATPase activity of plasma membranes from the AD124567 yeast strain overexpressing Pdr5p (I50) was found to be 3 µM. The same substance showed an inhibition of S. cerevisiae plasma membrane H+-ATPase (I50) in assay [2] of 10 µM. In assay [3], this substance had a fold higher inhibitory concentration for Cdr1p ATPase than for Pdr5p ATPase of 2.7 fold and an inhibition of oligomycin sensitive ATPase activity of AD1002 plasma membranes (I50) of 8 µM.
